By EC50 (read off the curve) is commonly meant the concentration giving half of the maximal effect.

The test concerns the target T1, integrin alpha2b beta3 (UniProt P08514 32-993; P05106 27-718).
T1 construct: also called integrin α2b β3; integrin alpha2 beta3
Kind of test: ELISA on coated integrin alpha2b beta3 (100 ng per well), anti-human Fab-HRP, absorbance 405 nm. In general terms: In an ELISA, binding on a coated surface is turned into a signal by an enzyme label.

B1: abciximab (ReoPro) (Fab, V domains shown)
VH: EVQLQQSGTVLARPGASVKMSCEASGYTFTNYWMHWVKQRPGQGLEWIGAIYPGNSDTSYIQKFKGKAKLTAVTSTTSVYMELSSLTNEDSAVYYCTLYDGYYVFAYWGQGTLVTVSA
VL: EIVLTQSPVTLSVTPGDSVSLSCRASRDISNNLHWFQQTSHESPRLLIKYASQSMSGIPSRFSGSGSGTDFTLSINSVETEDFGMYFCQQTNSWPYTFGGGTKLEIK
As to B1, the “EC50 (read off the curve)” value was about 0.8 nM.
